Reference: US20040115656A1

Molecular target: androgen receptor (UniProt P10275)
Test: cell-based or functional assay

UniProt P10275, sequence (P10275 whole entry): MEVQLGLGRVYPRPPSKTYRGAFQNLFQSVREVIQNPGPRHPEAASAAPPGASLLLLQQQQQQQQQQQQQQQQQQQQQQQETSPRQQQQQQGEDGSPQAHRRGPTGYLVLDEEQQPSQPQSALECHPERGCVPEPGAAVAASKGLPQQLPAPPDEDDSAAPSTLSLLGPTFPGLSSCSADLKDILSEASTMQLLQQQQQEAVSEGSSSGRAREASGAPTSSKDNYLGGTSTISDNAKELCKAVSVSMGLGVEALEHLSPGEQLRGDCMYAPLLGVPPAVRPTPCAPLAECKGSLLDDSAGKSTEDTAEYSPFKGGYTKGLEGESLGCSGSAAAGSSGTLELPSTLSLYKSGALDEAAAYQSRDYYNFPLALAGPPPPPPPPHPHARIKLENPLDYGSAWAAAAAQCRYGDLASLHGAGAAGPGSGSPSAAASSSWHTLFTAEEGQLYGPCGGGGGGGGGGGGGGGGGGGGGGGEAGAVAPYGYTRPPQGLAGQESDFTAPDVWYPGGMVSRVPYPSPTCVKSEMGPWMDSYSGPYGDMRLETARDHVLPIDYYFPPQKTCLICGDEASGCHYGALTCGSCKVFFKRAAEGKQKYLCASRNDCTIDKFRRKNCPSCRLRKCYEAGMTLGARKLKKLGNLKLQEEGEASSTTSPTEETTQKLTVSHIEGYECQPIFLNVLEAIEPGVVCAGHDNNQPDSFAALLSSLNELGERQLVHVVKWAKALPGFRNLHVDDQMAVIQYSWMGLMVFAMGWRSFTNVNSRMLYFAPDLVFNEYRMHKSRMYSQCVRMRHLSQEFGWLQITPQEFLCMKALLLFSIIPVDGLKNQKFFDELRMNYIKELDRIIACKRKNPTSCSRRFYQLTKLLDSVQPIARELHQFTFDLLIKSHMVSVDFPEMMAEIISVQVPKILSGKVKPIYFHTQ

- luciferase activity of AFP promoter (ARE) reporter in MCF7 and G2 cells (times (relative to the control reporter)): 2
Substance: human androgen receptor down-regulatory-associated protein
